From publication PMC9555727 (Chemical Science, 2022) come the findings set out here.

The target of one data set is Can (E. coli BL21 (DE3)). As to the kind of experiment: not stated; summary of the solution experiments on the 17 proteins (native MS, MP, SEC, SAXS); which method gave the stated form is not given; details in Table S2, Fig. 5A and Fig. 6.
Data set [1] addresses FabG (3-oxoacyl-[acyl-carrier-protein] reductase) from E. coli-DE3 (E. coli BL21 (DE3)). Put plainly: SAXS; EMBL P12 beamline, 20 °C, four concentrations between about 10 and 90 μM; MM from I(0) and equilibrium fit with OLIGOMER on PDB structures.
The target is the same in data set [2]. As to the kind of experiment: native MS; online buffer exchange MS; proteins diluted in 50 mM HEPES, 50 mM NaCl pH 7.4 (FabG: 25 mM tricine, 50 mM NaCl pH 8.5), overnight at 4 °C, exchanged online to 200 mM ammonium acetate pH 6.8; range of concentrations 40-0.15 μM before dilution; DeoC: apparent affinity, dimer to monomers, fit of eqn (1).
The target is the same in data set [3]. Put plainly: non-reducing SDS-PAGE; 10 μg protein without β-mercaptoethanol, heated, 4-20% gel, Coomassie stain; shows inter-protein disulfide bridges.
Data set [4] shares this target. As to the kind of experiment: SAXS; EMBL P12 beamline, 20 °C, four concentrations between about 10 and 90 μM; MM from I(0) and equilibrium fit with OLIGOMER on PDB structures. This is another data set of the same source.
For data set [5] the target is unchanged. As to the kind of experiment: mass photometry; protein stocks diluted in PBS pH 7.4 to nanomolar concentrations (~100 nM) immediately before measurement; detection threshold ~40 kDa.
Data set [6] has the same target. Put plainly: native MS; as a1, FabG^DE3 in the presence of DTT; 2.5-40 μM.
The target is the same in data set [7]. As to the kind of experiment: SEC; 30 μg protein on Superdex 200 Increase 10/300 GL in PBS pH 7.4; MM from a standard curve of elution volumes.
Data set [8] deals with IspD (E. coli BL21 (DE3)). Put plainly: not stated; summary of the solution experiments on the 17 proteins (native MS, MP, SEC, SAXS); which method gave the stated form is not given; details in Table S2, Fig. 5A and Fig. 6.
Data set [9] deals with NadK (E. coli BL21 (DE3)). As to the kind of experiment: SAXS; EMBL P12 beamline, 20 °C, four concentrations between about 10 and 90 μM; MM from I(0) and equilibrium fit with OLIGOMER on PDB structures.
Data set [10] addresses NadK (E. coli BL21 (DE3)). Put plainly: native MS; online buffer exchange MS; proteins diluted in 50 mM HEPES, 50 mM NaCl pH 7.4 (FabG: 25 mM tricine, 50 mM NaCl pH 8.5), overnight at 4 °C, exchanged online to 200 mM ammonium acetate pH 6.8; range of concentrations 40-0.15 μM before dilution; DeoC: apparent affinity, dimer to monomers, fit of eqn (1).
The target in data set [11] is NadK (E. coli BL21 (DE3)). Put plainly: SEC; 30 μg protein on Superdex 200 Increase 10/300 GL in PBS pH 7.4; MM from a standard curve of elution volumes.
Data set [12] concerns the target SpeB (E. coli BL21 (DE3)). As to the kind of experiment: not stated; summary of the solution experiments on the 17 proteins (native MS, MP, SEC, SAXS); which method gave the stated form is not given; details in Table S2, Fig. 5A and Fig. 6.
Data set [13] addresses Superoxide dismutase (SodA) (E. coli BL21 (DE3)). Put plainly: SAXS; EMBL P12 beamline, 20 °C, four concentrations between about 10 and 90 μM; MM from I(0) and equilibrium fit with OLIGOMER on PDB structures.
The target is the same in data set [14]. As to the kind of experiment: native MS; online buffer exchange MS; proteins diluted in 50 mM HEPES, 50 mM NaCl pH 7.4 (FabG: 25 mM tricine, 50 mM NaCl pH 8.5), overnight at 4 °C, exchanged online to 200 mM ammonium acetate pH 6.8; range of concentrations 40-0.15 μM before dilution; DeoC: apparent affinity, dimer to monomers, fit of eqn (1).
Data set [15] has the same target. As to the kind of experiment: mass photometry; protein stocks diluted in PBS pH 7.4 to nanomolar concentrations (~100 nM) immediately before measurement; detection threshold ~40 kDa.
Data set [16] has the same target. As to the kind of experiment: SEC; 30 μg protein on Superdex 200 Increase 10/300 GL in PBS pH 7.4; MM from a standard curve of elution volumes.
In data set [17] the target is Upp (E. coli BL21 (DE3)). Put plainly: not stated; summary of the solution experiments on the 17 proteins (native MS, MP, SEC, SAXS); which method gave the stated form is not given; details in Table S2, Fig. 5A and Fig. 6.
Data set [18] concerns the target Upp (E. coli BL21 (DE3)). As to the kind of experiment: mass photometry; protein stocks diluted in PBS pH 7.4 to nanomolar concentrations (~100 nM) immediately before measurement; detection threshold ~40 kDa.
Data set [19] concerns the molecule itself. Put plainly: SEC; 30 μg protein on Superdex 200 Increase 10/300 GL in PBS pH 7.4; MM from a standard curve of elution volumes.
Data set [20] concerns the molecule itself. As to the kind of experiment: native MS; online buffer exchange MS; proteins diluted in 50 mM HEPES, 50 mM NaCl pH 7.4 (FabG: 25 mM tricine, 50 mM NaCl pH 8.5), overnight at 4 °C, exchanged online to 200 mM ammonium acetate pH 6.8; range of concentrations 40-0.15 μM before dilution; DeoC: apparent affinity, dimer to monomers, fit of eqn (1).

Where “and” joins values, the source holds several entries; their conditions need not be identical. Equal entries are not always repeated. Where two headings read alike, the source gives them in different places.

A word on the stoichiometry N: it is the number of molecules, sites or subunits per partner or assembly. As to Can (enzyme), the stoichiometry N with Can (E. coli BL21 (DE3)) came out at 4.

In the case of “FabG (3-oxoacyl-[acyl-carrier-protein] reductase) from E. coli-DE3 (enzyme)”, the SAXS MM from I(0) divided by the monomer's mass in data set [1] was 3.5; in data set [4], 3.7. Also, the stoichiometry N was 6 and 2 and 4 in data set [1]; 6 in [2]; 2 and 4 and 6 in data set [5]; 2 and 4 in data set [6]; 4 and 2 in data set [7]. In data set [3], this molecule yielded a percent in an inter-protein disulfide bonded dimer of 50%.

On to IspD (enzyme), for which the stoichiometry N in data set [8] is 2 and 4.

For NadK (enzyme), in data set [9], the subunit average from SAXS I(0) at 8 μM stood at 2.37 and the subunit average from SAXS I(0) at 61 μM is 2.67. Moreover, in [10], the percent dimer at ∼1 μM came out at 56%, the percent dimer at ∼40 μM was 23%, the percent monomer at ∼1 μM amounted to 12% and the percent monomer at ∼40 μM came to 2%. In [10], the percent tetramer at ∼1 μM was found to be 32%; the percent tetramer at ∼40 μM stood at 75%; the stoichiometry N is 2 and 4. The stoichiometry N in data set [11] is 2.7.

Molecule SpeB (enzyme) had a stoichiometry N in data set [12] of 6.

Consider Superoxide dismutase (SodA) (enzyme), for which the stoichiometry N in data set [13], in data set [14], in data set [15] and in data set [16] was 2 throughout.

As for Upp (enzyme), the stoichiometry N was 2 and 4 and 6 with Upp (E. coli BL21 (DE3)) [17]; 2 in the data set with Upp (E. coli BL21 (DE3)) [18].

B1: FabG (3-oxoacyl-[acyl-carrier-protein] reductase) from E. coli-K12 (enzyme, E. coli K12)
chain: MNFEGKIALVTGASRGIGRAIAETLAARGAKVIGTATSENGAQAISDYLGANGKGLMLNVTDPASIESVLEKIRAEFGEVDILVNNAGITRDNLLMRMKDEEWNDIIETNLSSVFRLSKAVMRAMMKKRHGRIITIGSVVGTMGNGGQANYAAAKAGLIGFSKSLAREVASRGITVNVVAPGFIETDMTRALSDDQRAGILAQVPAGRLGGAQEIANAVAFLASDEAAYITGETLHVNGGMYMV
notes: FabG, 3-oxoacyl-[acyl-carrier-protein] reductase of E. coli K12, Arg at position 167; probably the same vector, cleaved His-bdSumo tag and added N-terminal alanine as for the other proteins; also called FabG^K12; source: E. coli, purified
For the molecule B1, the “stoichiometry N” value in data set [19] was found to be 2; in data set [20], 4.
